Results from publication PMC10179326.

Target: alpha-thrombin (Homo sapiens, UniProt P00734;P00734 328-363;364-622)
Assay: MST; potassium phosphate pH 7.5, 20 nM aptamer; EMSA: 10 mM sodium cacodylate pH 7.2, 100 mM KCl in D2O, incubation 25 C, 12% native gel in 1x TBE + 10 mM KCl at 10 C; MST: 10 mM Tris-HCl, 100 mM potassium ph

B1: 2GLE (analogue 2 - GLE tripeptide conjugate) (structured_DNA)
DNA: GGGTTGGGTGTGGGTTGGG
modifications: alpha-deoxyguanosine at positions 1,12; tripeptide GLE conjugated at T4 (N3 position, equivalent of T3 in TBA)
**Q.** With B1 as the binder, how does the Kd read?
**A.** Its Kd is 2.7 nM.

**Q.** How did the Kd turn out when GGTTGGTGTGGTTGG (structured_DNA) [TBA (15-mer thrombin binding aptamer)] was run?
**A.** Its Kd is 19.5 nM.
